These results are taken from PMC4989518, “In situ expression of (R)-carbonyl reductase rebalancing an asymmetric pathway improves stereoconversion efficiency of racemic mixture to (S)-phenyl-1,2-ethanediol in Candida parapsilosis CCTCC M203011” (Microbial Cell Factories, 2016).

For this data set, the system named is OC[C@H](O)c1ccccc1. The data set is described as follows: purified protein. To be noted: oxidation to 2-HAP, NAD+, 100 mM acetate pH 6.5, 35 °C, enzyme from C. parapsilosis/pCP-rcr.

With “recombinant RCR (C. parapsilosis/pCP-rcr) (Lodderomyces parapsilosis)”, the Michaelis-Menten constant (Km) was found to be 6.31 ± 0.09 mM, the catalytic constant (kcat) worked out at 3.19 ± 0.22 s⁻¹ and the specificity constant (kcat/Km) turned out to be 510 M⁻¹ s⁻¹.

The Km is the concentration of substrate that gives half-maximal velocity. Usually kcat stands for the maximal rate divided by the concentration of active sites. A word on the kcat/Km: it is the turnover number divided by the Michaelis constant.
